Test results as given in publication PMC6029887 (Cell reports, 2018).

Tests used:
[1] = target: Cadherin-11 V3M L20Y Q97H P89E (MYHE) specificity mutant, adhesive fragment (mouse) (mouse); assay: AUC
[2] = target: chimera cad-11EC16EC2 (cadherin-11 EC1 joined to cadherin-6 EC2) (mouse) (UniProt P97326); assay: AUC
[3] = target: cadherin-18 EC1-EC2 adhesive fragment (mouse), wild-type (mouse); assay: AUC
[4] = target: Cadherin-6 Y20L H97Q (LQ) specificity mutant, adhesive fragment (mouse) (mouse); assay: AUC
[5] = target: Cadherin-11 L20Y Q97H (YH) specificity mutant, adhesive fragment (mouse) (mouse); assay: AUC
[6] = target: Cadherin-6 M3V Y20L H97Q E89P (VLQP) specificity mutant, adhesive fragment (mouse) (mouse); assay: AUC
[7] = target: chimera cad-6EC111EC2 (cadherin-6 EC1 joined to cadherin-11 EC2) (mouse); assay: AUC
AUC = target: the molecule itself; assay: AUC
[8] = target: T1, Cys-tagged cadherin-6 adhesive fragment (mouse) (mouse, UniProt P97326 54-260); assay: SPR
T1 sequence: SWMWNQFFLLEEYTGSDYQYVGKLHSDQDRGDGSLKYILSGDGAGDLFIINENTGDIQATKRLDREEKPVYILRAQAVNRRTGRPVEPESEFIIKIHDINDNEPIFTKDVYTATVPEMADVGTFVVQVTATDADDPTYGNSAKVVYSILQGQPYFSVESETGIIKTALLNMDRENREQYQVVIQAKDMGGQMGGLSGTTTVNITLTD

[9] = target: T2, Cys-tagged cadherin-10 adhesive fragment (mouse) (mouse, UniProt P70408 55-261); assay: SPR
T2 sequence: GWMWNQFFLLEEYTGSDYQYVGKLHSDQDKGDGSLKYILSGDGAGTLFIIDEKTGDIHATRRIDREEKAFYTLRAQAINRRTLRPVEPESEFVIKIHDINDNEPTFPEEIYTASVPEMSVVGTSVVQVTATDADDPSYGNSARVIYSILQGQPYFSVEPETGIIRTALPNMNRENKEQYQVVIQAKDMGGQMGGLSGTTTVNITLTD

[10] = target: T3, Cys-tagged cadherin-7 adhesive fragment (mouse) (mouse, UniProt Q8BM92 48-254); assay: SPR
T3 sequence: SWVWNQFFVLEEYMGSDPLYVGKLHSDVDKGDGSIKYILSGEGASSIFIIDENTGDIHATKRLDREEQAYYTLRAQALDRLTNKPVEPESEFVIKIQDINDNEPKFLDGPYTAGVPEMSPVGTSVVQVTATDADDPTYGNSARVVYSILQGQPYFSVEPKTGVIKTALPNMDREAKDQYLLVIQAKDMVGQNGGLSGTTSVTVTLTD

Cadherin-11 V3M L20Y Q97H P89E (MYHE) specificity mutant, adhesive fragment (mouse) (domain or fragment)
Kd [1]: 8.2 µM

chimera cad-11EC16EC2 (cadherin-11 EC1 joined to cadherin-6 EC2) (from UniProt P97326 151-260) (domain or fragment)
Kd [2]: 15.6 µM

cadherin-18 EC1-EC2 adhesive fragment (mouse), wild-type (domain or fragment)
Kd [3]: 16.8 µM

Cadherin-6 Y20L H97Q (LQ) specificity mutant, adhesive fragment (mouse) (domain or fragment)
Kd [4]: 9.63 µM

Cadherin-11 L20Y Q97H (YH) specificity mutant, adhesive fragment (mouse) (domain or fragment)
Kd [5]: 11.1 µM

Cadherin-6 M3V Y20L H97Q E89P (VLQP) specificity mutant, adhesive fragment (mouse) (domain or fragment)
Kd [6]: 6.73 µM

chimera cad-6EC111EC2 (cadherin-6 EC1 joined to cadherin-11 EC2) (domain or fragment)
Kd [7]: 5.6 µM

B1: cadherin-7 EC1-EC2 adhesive fragment (mouse), wild-type (domain or fragment)
chain: SWVWNQFFVLEEYMGSDPLYVGKLHSDVDKGDGSIKYILSGEGASSIFIIDENTGDIHATKRLDREEQAYYTLRAQALDRLTNKPVEPESEFVIKIQDINDNEPKFLDGPYTAGVPEMSPVGTSVVQVTATDADDPTYGNSARVVYSILQGQPYFSVEPKTGVIKTALPNMDREAKDQYLLVIQAKDMVGQNGGLSGTTSVTVTLTD
Kd (AUC): 32.2 µM
binding result [8]: binds
binding result [9]: binds

B2: cadherin-9 EC1-EC2 adhesive fragment (mouse), wild-type (domain or fragment)
chain: GWMWNQFFLLEEYTGTDTQYVGKLHTDQDKGDGNLKYILTGDGAGNLFVIDENTGDIHAAKRLDREEKSLYILRAKAIDRKTGRQVEPESEFIIKIHDINDNEPKFTKDLYTASVPEMSGVGTSVIQVTATDADDANYGNSAKVVYSILQGQPYFSVDPESGIIKTALPDMSRENKEQYQVVIQAKDMGGQMGGLSGTTTVNITLTDVNNNPPRF
Kd (AUC): 17 µM

B3: cadherin-10 EC1-EC2 adhesive fragment (mouse), wild-type (domain or fragment)
chain: GWMWNQFFLLEEYTGSDYQYVGKLHSDQDKGDGSLKYILSGDGAGTLFIIDEKTGDIHATRRIDREEKAFYTLRAQAINRRTLRPVEPESEFVIKIHDINDNEPTFPEEIYTASVPEMSVVGTSVVQVTATDADDPSYGNSARVIYSILQGQPYFSVEPETGIIRTALPNMNRENKEQYQVVIQAKDMGGQMGGLSGTTTVNITLTD
Kd (AUC): 42.2 µM
binding result [8]: binds
binding result [10]: binds

B4: cadherin-8 EC1-EC3 fragment (mouse), wild-type (domain or fragment)
chain: GWVWNQMFVLEEFSGPEPILVGRLHTDLDPGSKKIKYILSGDGAGTIFQINDITGDIHAIKRLDREEKAEYTLTAQAVDFETNKPLEPPSEFIIKVQDINDNAPEFLNGPYHATVPEMSILGTSVTNVTATDADDPVYGNSAKLVYSILEGQPYFSIEPETAIIKTALPNMDREAKEEYLVVIQAKDMGGHSGGLSGTTTLTVTLTDVNDNPPKFAQSLYHFSVPEDVVLGTAIGRVKANDQDIGENAQSSYDIIDGDGTALFEITSDAQAQDGVIRLRKPLDFETKKSYTLKVEAANIHIDPRFSSRGPFKDTATVKIVVEDADEPPVF
Kd (AUC): 15 µM

B5: cadherin-24 EC1-EC3 fragment (mouse), wild-type (domain or fragment)
chain: SWVWNQFFVIEEYSGPEPVLIGKLHSDVDRGEGRTKYLLTGEGAGTVFVIDEATGNIHVTKSLDREEKAQYVLLAQAVDRASNRPLEPPSEFIIKVQDINDNPPVFPLGPYHATVPEMSNVGTSVIQVTAHDADDPSYGNSAKLVYTVLDGLPFFSVDPQTGVVRTAIPNMDRETQEEFLVVIQAKDMGGHMGGLSGSTTVTVTLSDVNDNPPKFPQSLYQFSVVETAGPGTLVGRLKAQDPDLGDNALVAYSILNGEGSEVFSISTDSQGQDGLLTVRKPLDFETRRSYTFRVEATNTLIDPAYLRRGPFKDVASVRVTVQDAPEPPAF
Kd (AUC): 8.2 µM

B6: cadherin-12 EC1-EC2 adhesive fragment (mouse), wild-type (domain or fragment)
chain: GWVWNQFFVLEEYMGSEPQYVGKLHSDLDKGEGTVKYTLSGDGAGTVFTIDETTGDIHAIRSLDREEKPFYTLRAQAVDIETRKPLEPESEFIIKVQDINDNEPKFLDGPYVASVPEMSPVGAYVLQVKATDADDPTYGNSARVVYSILQGQPYFSIDPKTGVIRTALPNMDREVKEQYQVLIQAKDMGGQLGGLAGTTVVNITLTDVNDNPPRF
Kd (AUC): 8.3 µM

B7: cadherin-11 EC1-EC2 adhesive fragment (mouse), wild-type (domain or fragment)
chain: GWVWNQFFVIEEYTGPDPVLVGRLHSDIDSGDGNIKYILSGEGAGTIFVIDDKSGNIHATKTLDREERAQYTLMAQAVDRDTNRPLEPPSEFIVKVQDINDNPPEFLHEIYHANVPERSNVGTSVIQVTASDADDPTYGNSAKLVYSILEGQPYFSVEAQTGIIRTALPNMDREAKEEYHVVIQAKDMGGHMGGLSGTTKVTITLTDVNDNPPKF
Kd (AUC): 33.8 µM

B8: cadherin-20 EC1-EC2 adhesive fragment (mouse), wild-type (domain or fragment)
chain: SWVWNQFFVLEEYTGTDPLYVGKLHSDMDRGDGSIKYILSGEGAGIVFTIDDTTGDIHAIQRLDREERAQYTLRAQALDRRTGRPMEPESEFIIKIQDINDNEPKFLDGPYIATVPEMSPVGTSVIQVTATDADDPTYGNSARVVYSILQGQPYFSVDSKTGVIRTALMNMDREAKEYYEVIIQAKDMGGQLGGLAGTTTVNITLSDVNDNPPRF
Kd (AUC): 9.3 µM

B9: cadherin-6 EC1-EC2 adhesive fragment (mouse), wild-type (domain or fragment)
chain: SWMWNQFFLLEEYTGSDYQYVGKLHSDQDRGDGSLKYILSGDGAGDLFIINENTGDIQATKRLDREEKPVYILRAQAVNRRTGRPVEPESEFIIKIHDINDNEPIFTKDVYTATVPEMADVGTFVVQVTATDADDPTYGNSAKVVYSILQGQPYFSVESETGIIKTALLNMDRENREQYQVVIQAKDMGGQMGGLSGTTTVNITLTD
Kd (AUC): 3.1 µM
binding result [10]: binds
binding result [9]: binds

B10: cadherin-22 EC1-EC2 adhesive fragment (mouse), wild-type (domain or fragment)
chain: GWVWNQFFVVEEYTGTEPLYVGKIHSDSDEGDGTIKYTISGEGAGTIFLIDELTGDIHATERLDREQKTFYTLRAQARDRATNRLLEPESEFIIKVQDINDSEPRFLHGPYIGSVAELSPTGTSVMQVMASDADDPTYGSSARLVYSVLDGEHHFTVDPKTGVIRTAVPDLDRESQERYEVVIQATDMAGQLGGLSGSTTVTIVVTD
Kd (AUC): 3.9 µM
